Experimental data from PMC4151996.

Target: AcHNL, hydroxynitrile lyase from Acidobacterium capsulatum ATCC 51196 (Acidobacterium capsulatum ATCC 51196)
Test: SEC

stoichiometry N: 4
Substance: AcHNL, hydroxynitrile lyase from Acidobacterium capsulatum ATCC 51196 (enzyme)
